Experimental data reported in paper PMC10975748.

Target: voltage-gated potassium channel Kv1.3 (UniProt P22001)
Sequence (P22001 whole entry): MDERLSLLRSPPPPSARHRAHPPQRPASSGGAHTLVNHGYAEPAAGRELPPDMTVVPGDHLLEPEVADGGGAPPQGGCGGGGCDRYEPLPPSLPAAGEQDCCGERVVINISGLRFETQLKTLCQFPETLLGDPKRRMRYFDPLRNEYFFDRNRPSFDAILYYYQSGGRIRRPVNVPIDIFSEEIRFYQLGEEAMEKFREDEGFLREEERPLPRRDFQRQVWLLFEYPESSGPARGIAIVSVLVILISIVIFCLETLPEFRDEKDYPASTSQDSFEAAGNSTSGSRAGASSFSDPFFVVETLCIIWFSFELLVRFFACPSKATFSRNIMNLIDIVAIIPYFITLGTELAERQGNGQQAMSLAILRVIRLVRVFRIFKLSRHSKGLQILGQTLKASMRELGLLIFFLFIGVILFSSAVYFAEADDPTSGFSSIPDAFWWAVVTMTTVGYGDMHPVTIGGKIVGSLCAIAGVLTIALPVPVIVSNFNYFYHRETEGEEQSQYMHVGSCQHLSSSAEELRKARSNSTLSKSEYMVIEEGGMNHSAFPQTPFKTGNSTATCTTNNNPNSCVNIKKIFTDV

Substance mCherry-Vm24 has a Kd from electrophysiological assays of 275 pM.
